Results as given in patent publication US20170313754A1 (PROTAGONIST THERAPEUTICS, published 2017).
Numbered stars: 1 amine (or outer) side, 2 acyl side, 3 side chain; on linkers, the order of the positions; unused ones are H or OH. Bridge positions count the residues as written; N and C are the ends. Square brackets hold non-standard residues; d marks the D form. Ends that are not written are not given here. * marks the point of attachment. Ida = iminodiacetic acid, O=C(CN(CC(=O)[*:3])[*:1])[*:2]; Lauroyl = CCCCCCCCCCCC(=O)*; Decanoyl = CCCCCCCCCC(=O)*; β3hP = O=C(O)C[C@@H]1CCCN1; Isovaleryl = CC(C)CC(=O)*; Octanoyl = CCCCCCCC(=O)*; Albu = not defined here; Hexanoyl = CCCCCC(=O)*; Butyryl = CCCC(=O)*

T1: human ferroportin (SLC40A1) fused in frame with GFP, stably expressed in HEK293 cells (human, UniProt Q9NP59 1-571)
T1 sequence (looked up): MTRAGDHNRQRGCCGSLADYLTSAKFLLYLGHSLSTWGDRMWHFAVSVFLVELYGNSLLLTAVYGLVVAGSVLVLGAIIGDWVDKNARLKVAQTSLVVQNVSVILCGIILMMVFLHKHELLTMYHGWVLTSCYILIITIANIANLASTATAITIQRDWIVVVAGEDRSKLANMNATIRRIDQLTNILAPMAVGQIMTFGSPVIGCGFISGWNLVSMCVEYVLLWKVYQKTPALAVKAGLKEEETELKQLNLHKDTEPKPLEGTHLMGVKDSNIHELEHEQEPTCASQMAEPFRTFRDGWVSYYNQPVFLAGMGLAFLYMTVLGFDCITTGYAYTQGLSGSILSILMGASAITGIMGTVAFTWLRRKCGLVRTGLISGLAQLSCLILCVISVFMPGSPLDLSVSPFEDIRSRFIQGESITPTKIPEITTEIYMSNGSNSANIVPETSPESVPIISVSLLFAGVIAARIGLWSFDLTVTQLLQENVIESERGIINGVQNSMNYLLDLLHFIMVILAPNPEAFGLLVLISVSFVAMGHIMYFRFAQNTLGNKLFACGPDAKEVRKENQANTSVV

B1: Hy-DTHFACIIF-NH2 (peptide)
peptide: H-DTHFACIIF-NH2
B2: Hy-DTHFPCAIF-NH2 (peptide)
peptide: H-DTHFPCAIF-NH2
B3: Hy-DTHFPIICI-NH2 (peptide)
peptide: H-DTHFPIICI-NH2
B4: [Ida]-THFPCIKFEPRSKGWVC-K(butyric acid)-NH2 (peptide)
peptide: [Ida]THFPCIKFEPRSKGWVCK(Butyryl)-NH2
modifications: disulfide 6-18 (inferred)
B5: Hy-DTHFPCIEF-NH2 (peptide)
peptide: H-DTHFPCIEF-NH2
B6: Hy-DTHFPCIEF-NH2 (peptide)
peptide: H-DTHFPCIEF-NH2
B7: Hy-DTHFPIAIFAAICI-NH2 (peptide)
peptide: H-DTHFPIAIFAAICI-NH2
B8: [Ida]-THF-[bhPro]-CIIF-NH2 (peptide)
peptide: [Ida]THF[β3hP]CIIF-NH2
B9: Hy-DTHFPIAIICI-NH2 (peptide)
peptide: H-DTHFPIAIICI-NH2
B10: 4,4-5,5-6,6,6-Heptafluorohexanoic acid-DTHFPCIKFGPRSKGWVCK-NH2 (peptide)
peptide: {4,4‑5,5‑6,6,6‑heptafluorohexanoic acid}-DTHFPCIKFGPRSKGWVCK-NH2
modifications: disulfide 6-18 (inferred)
B11: Hy-ATHFPCIIF-NH2 (peptide)
peptide: H-ATHFPCIIF-NH2
B12: Ida-THFPCIKFEPRSKGWVC-K(mysteric acid)-NH2 (peptide)
peptide: [Ida]THFPCIKFEPRSKGWVCK(mysteric acid)-NH2
modifications: disulfide 6-18 (inferred)
B13: Isovaleric acid-DTHFPCIKFEPHS-K(Albu)-GCK-NH2 (peptide)
peptide: Isovaleryl-DTHFPCIKFEPHSK(Albu)GCK-NH2
modifications: not fully specified (bridges); cysteine pairing not given here; reading uncertain
B14: Hy-DTHFPIAIFAAGICI-NH2 (peptide)
peptide: H-DTHFPIAIFAAGICI-NH2
B15: [Ida]-THFPCIKFEPRSKGWVC-K(octanoic acid)-NH2 (peptide)
peptide: [Ida]THFPCIKFEPRSKGWVCK(Octanoyl)-NH2
modifications: not fully specified (bridges); cysteine pairing not given here
B16: Isovaleric acid-DTHFPCIKF-K(Ac)-PRSKGWVC-NH2 (peptide)
peptide: DTHFPCIKFKPRSKGWVC
modifications: N-terminal isovaleric acid; K(Ac) at Lys 10; C-terminal amide
B17: Hy-DTHF-(D)-Ala-CIIF-NH2 (peptide)
peptide: H-DTHF[dA]CIIF-NH2
SMILES: CC[C@H](C)[C@H](NC(=O)[C@H](CS)NC(=O)[C@@H](C)NC(=O)[C@H](Cc1ccccc1)NC(=O)[C@H](Cc1c[nH]cn1)NC(=O)[C@@H](NC(=O)[C@@H](N)CC(=O)O)[C@@H](C)O)C(=O)N[C@H](C(=O)N[C@@H](Cc1ccccc1)C(N)=O)[C@@H](C)CC
B18: Hy-DTHAPCIIF-NH2 (peptide)
peptide: H-DTHAPCIIF-NH2
B19: Hy-DTHFPIAICI-NH2 (peptide)
peptide: H-DTHFPIAICI-NH2
B20: Hy-DTHCPIAIF-NH2 (peptide)
peptide: H-DTHCPIAIF-NH2
B21: Isovaleric acid-DTHFPCIKF-K(mysteric acid)-PRSKGWVC-NH2 (peptide)
peptide: DTHFPCIKFKPRSKGWVC
modifications: not fully specified; N-terminal isovaleric acid; K(mysteric acid) at Lys 10; C-terminal amide
B22: Hy-DTHFPCIIA-NH2 (peptide)
peptide: H-DTHFPCIIA-NH2
B23: Hy-DTHICIAIF-NH2 (peptide)
peptide: H-DTHICIAIF-NH2
B24: Isovaleric acid-HFPCIKFEPRSKGWVC-K(octanoic acid)-NH2 (peptide)
peptide: Isovaleryl-HFPCIKFEPRSKGWVCK(Octanoyl)-NH2
modifications: disulfide 4-16 (inferred)
B25: Isovaleric acid-DTHFPCIKF-K(lauric acid)-PRSKGWVC-NH2 (peptide)
peptide: DTHFPCIKFKPRSKGWVC
modifications: not fully specified; N-terminal isovaleric acid; K(lauric acid) at Lys 10; C-terminal amide
B26: [Ida]-THFPCIKFEPRSKGWVC-K(hexanoic acid)-NH2 (peptide)
peptide: [Ida]THFPCIKFEPRSKGWVCK(Hexanoyl)-NH2
modifications: disulfide 6-18 (inferred)
B27: Isovaleric acid-DTHFPCIKF-K(butyric acid)-PRSKGWVC-NH2 (peptide)
peptide: DTHFPCIKFKPRSKGWVC
modifications: N-terminal isovaleric acid; K(butyric acid) at Lys 10; C-terminal amide
B28: [Ida]-THFPCIKFEPRSKGWVC-K(lauric acid)-NH2 (peptide)
peptide: [Ida]THFPCIKFEPRSKGWVCK(Lauroyl)-NH2
modifications: disulfide 6-18 (inferred)
B29: [Ida]-THFPCIKFEPRSKGWVC-K(Ac)-NH2 (peptide)
peptide: [Ida]THFPCIKFEPRSKGWVCK(Ac)-NH2
modifications: disulfide 6-18 (inferred)
B30: Hy-DTHFPIAIFICI-NH2 (peptide)
peptide: H-DTHFPIAIFICI-NH2
B31: Isovaleric acid-DTHAPCIKFEPRSKGWECK-NH2 (peptide)
peptide: Isovaleryl-DTHAPCIKFEPRSKGWECK-NH2
modifications: not fully specified (bridges); cysteine pairing not given here
B32: Hy-DTHFPIAIFAICI-NH2 (peptide)
peptide: H-DTHFPIAIFAICI-NH2
B33: Isovaleric acid-DTHFPCIKF-K(hexanoic acid)-PRSKGWVC-NH2 (peptide)
peptide: DTHFPCIKFKPRSKGWVC
modifications: N-terminal isovaleric acid; K(hexanoic acid) at Lys 10; C-terminal amide
B34: [Ida]-THFPCIKFEPRSKGWVC-K(decanoic acid)-NH2 (peptide)
peptide: [Ida]THFPCIKFEPRSKGWVCK(Decanoyl)-NH2
modifications: disulfide 6-18 (inferred)
B35: Isovaleric acid-DTHFPCIKF-K(decanoic acid)-PRSKGWVC-NH2 (peptide)
peptide: DTHFPCIKFKPRSKGWVC
modifications: N-terminal isovaleric acid; K(decanoic acid) at Lys 10; C-terminal amide
B36: Isovaleric acid-DTHFPCIKF-K(octanoic acid)-PRSKGWVC-NH2 (peptide)
peptide: DTHFPCIKFKPRSKGWVC
modifications: not fully specified; N-terminal isovaleric acid; K(octanoic acid) at Lys 10; C-terminal amide
B37: Hy-DTAFPCIIF-NH2 (peptide)
peptide: H-DTAFPCIIF-NH2

target: T1, human ferroportin (SLC40A1) fused in …; experiment: cell-based or functional assay

B1 and B2 cannot be ordered by “Potency EC50 (nM), ferroportin-GFP internalization/degradation” value: over 1000 nM for the first, over 1000 nM for the second.

First: B3
Second: B4
The “Potency EC50 (nM), ferroportin-GFP internalization/degradation” value of the first is higher: over 10000 nM for the first, 355 nM for the second.

B5 and B6 cannot be ordered by “Potency EC50 (nM), ferroportin-GFP internalization/degradation” value: over 1000 nM for the first, over 1000 nM for the second.

B7 and B8 cannot be ordered by “Potency EC50 (nM), ferroportin-GFP internalization/degradation” value: over 10000 nM for the first, over 1000 nM for the second.

First: B9
Second: B10
The “Potency EC50 (nM), ferroportin-GFP internalization/degradation” value of the first is higher: over 10000 nM for the first, 480 nM for the second.

First: B11
Second: B12
The “Potency EC50 (nM), ferroportin-GFP internalization/degradation” value of the first is higher: over 1000 nM for the first, 20 nM for the second.

Going from B13 to B14, the “Potency EC50 (nM), ferroportin-GFP internalization/degradation” value rises from 6 nM to over 10000 nM.

First: B15
Second: B16
The “Potency EC50 (nM), ferroportin-GFP internalization/degradation” value of the first is 4.4-fold higher: 129 nM for the first, 29 nM for the second.

B17 and B18 cannot be ordered by “Potency EC50 (nM), ferroportin-GFP internalization/degradation” value: over 10000 nM for the first, over 10000 nM for the second.

B19 and B20 cannot be ordered by “Potency EC50 (nM), ferroportin-GFP internalization/degradation” value: over 10000 nM for the first, over 10000 nM for the second.

Going from B21 to B22, the “Potency EC50 (nM), ferroportin-GFP internalization/degradation” value rises from 7 nM to over 1000 nM.

B23 and B24 cannot be ordered by “Potency EC50 (nM), ferroportin-GFP internalization/degradation” value: over 10000 nM for the first, over 300 nM for the second.

First: B25
Second: B26
The “Potency EC50 (nM), ferroportin-GFP internalization/degradation” value of the first is 19-fold lower: 10 nM for the first, 191 nM for the second.

B27 and B28 are within 1.5-fold of each other in “Potency EC50 (nM), ferroportin-GFP internalization/degradation” value: 37 nM for the first, 52 nM for the second.

Compared with B29, B30 is higher in “Potency EC50 (nM), ferroportin-GFP internalization/degradation” value: 502 nM for the first, over 10000 nM for the second.

B31 and B32 cannot be ordered by “Potency EC50 (nM), ferroportin-GFP internalization/degradation” value: over 10000 nM for the first, over 10000 nM for the second.

Compared with B33, B34 is 5.5-fold higher in “Potency EC50 (nM), ferroportin-GFP internalization/degradation” value: 21 nM for the first, 116 nM for the second.

B35 and B36 are within 1.5-fold of each other in “Potency EC50 (nM), ferroportin-GFP internalization/degradation” value: 22 nM for the first, 30 nM for the second.

With B37 the “Potency EC50 (nM), ferroportin-GFP internalization/degradation” value was 739 nM.
